# Source: US12522656B2, “Anti-G-protein alpha antibody” (CISBIO BIOASSAYS, priority 2020, dated 2026)
# B1: DSV36S: anti-G-protein alpha antibody; VH consists of SEQ ID NO: 14, VL of SEQ ID NO: 15; generated by Cisbio Bioassays (antibody, V domains shown)
# VH: EVQLQQSGAELVRPGALVKLSCKASGFNIKDYYMHWVKQRPEQGLEWIGWIDPENGNTIYDPKFQGKASITADTSSNTAYLQLSSLTSEDTAVYYCTRGGGYYSDWYFDVWGAGTTVTVSS
# VL: QIVLTQSPAIMSASPGEKVTMTCSASSSVSYMHWYQQKSGTSPKRWIYDTSKLASGVPARFSGSGSGTSYSLTISSMEAEDAATYYCQQWSSNPPITFGAGTKLELK
# modifications: Variable domain of the heavy chain (VH); Light Chain Variable Domain (VL)
# notes: anti-G-protein alpha antibody; generated by Cisbio Bioassays
# Legend:
# DOR receptors = target: T1, DOR receptors (Homo sapiens, UniProt P41143); experiment: Activation of DOR in HEK293 membranes read by TR-FRET (fluorescent GTP analog + labeled antibody); assay type: biochemical; details: SNC162 10 μM; read as increase of FRET signal with DSV36S-d2 / DSV38S-d2
# T1 construct: expressed in transfected cells; host or cells: HEK293 membranes
# T1 sequence (P41143 whole entry): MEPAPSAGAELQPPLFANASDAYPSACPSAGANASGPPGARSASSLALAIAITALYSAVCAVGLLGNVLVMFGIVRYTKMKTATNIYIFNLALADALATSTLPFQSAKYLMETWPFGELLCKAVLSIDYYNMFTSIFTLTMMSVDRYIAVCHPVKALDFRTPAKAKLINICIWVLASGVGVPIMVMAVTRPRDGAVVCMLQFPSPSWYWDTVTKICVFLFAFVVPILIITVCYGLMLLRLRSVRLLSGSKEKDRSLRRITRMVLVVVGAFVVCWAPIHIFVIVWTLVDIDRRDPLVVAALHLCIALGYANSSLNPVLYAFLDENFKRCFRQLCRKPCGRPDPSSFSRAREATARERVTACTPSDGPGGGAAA
# Method: (§1) HEK293 membranes expressing the DOR receptor were prepared 4× for a final amount in the wells of 10 μg. The antibodies DSV36S-d2, DSV38S-d2, SC13533-d2 and anti-FLAG-d2 were prepared 4× for a final concentration in the wells of 10 nM.
# (§2) The reagents were distributed in the 384-well plates as follows: • 1) 5 μl of DOR membranes was put in each well, • 2) 5 μl of GTPgN-octyl-C2 labeled with europium cryptate or GTPgO-linker-Cy5 was added to each well, • 3) 5 μl of antibody DSV36S or DSV38S or SC13533 or DSV 26S or DSV3S or DSV 39S labeled with d2 or DSV 36S or SC13533 labeled with terbium cryptate was added to each well, • 4) 5 μl of buffer or SNC 162 or GTPgS was added to each well.
# (§3) The plates were incubated for 20 h at room temperature before reading the HTRF signal.
# Delta Opioid GPCR = Delta Opioid GPCR (Homo sapiens, UniProt P41143); experiment: Activation assay format 2A on Delta Opioid GPCR, agonist/antagonist modulation of TR-FRET signal; details: fixed SNC162 200 nM; increasing concentration of antagonist; GTPgN-octyl-C2 + DSV36S-d2; FIG. 16B
# Chain of Delta Opioid GPCR (P41143 whole entry): as above
# Gαi1 [1] = target: T2, Gαi1 (Homo sapiens, UniProt P63096); experiment: Determination of affinity (Kd) of d2-labeled antibodies for G-protein αi1 by HTRF/FRET; assay type: binding
# T2 sequence (P63096 whole entry): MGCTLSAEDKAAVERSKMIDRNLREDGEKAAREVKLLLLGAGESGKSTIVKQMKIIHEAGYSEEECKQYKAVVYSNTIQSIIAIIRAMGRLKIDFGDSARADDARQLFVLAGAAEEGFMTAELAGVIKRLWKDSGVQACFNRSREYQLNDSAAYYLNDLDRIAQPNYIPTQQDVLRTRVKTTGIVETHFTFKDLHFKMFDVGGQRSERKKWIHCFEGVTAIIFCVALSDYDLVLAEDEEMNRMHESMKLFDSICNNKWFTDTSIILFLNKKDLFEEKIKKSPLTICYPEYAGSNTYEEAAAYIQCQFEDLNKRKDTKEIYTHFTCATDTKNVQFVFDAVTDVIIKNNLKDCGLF
# Method: These two reagents were prepared in one and the same solution and were preincubated for 30 minutes at room temperature before being distributed in the wells. The antibodies DSV36S-d2, DSV38S-d2 and SC13533-d2 were prepared 4× for final concentrations in the wells between 0.01 and 10 nM depending on the antibodies.
# The reagents were distributed in the 384-well plates as follows: • 1) 10 μl of the preincubation mixture of G-protein αi1+buffer only or GTPgS or GDP was put in each well, • 2) 5 μl of the antibody DSV36S or DSV38S or SC13533 labeled with d2 was added to each well, • 3) 5 μl of the anti Twin-Strep-tag-Lumi4 Tb antibody was added to each well.
# The plates were incubated for 24 h at room temperature before reading the HTRF signal.
# Moreover, the antibody titration curves obtained make it possible to calculate the affinity (Kd) of these different antibodies for the G-protein αi1. This was carried out using the GraphPad Prism software by applying a “one site specific binding” model to the HTRF data.
# Gαi1 [2] = target: T2, Gαi1; experiment: HTRF competition: unlabeled antibodies versus binding of SC13533-d2 on G-protein αi1; details: unlabeled antibody 0.01-100 nM; SC13533-d2 10 nM; GTPgS 10 μM
# Method: (§4) These two reagents were prepared in one and the same solution and were preincubated for 30 minutes at room temperature before being distributed in the wells. The cold antibodies DSV36S, DSV38S and SC13533 were prepared 4× for final concentrations in the wells between 0.01 and 100 nM. The antibody SC 13533-d2 was prepared 4× for a final concentration of 10 nM.
# (§5) The reagents were distributed in the 384-well plates as follows: • 1) 10 μl of the preincubated mixture of G-protein αi1+GTPgS was put in each well, • 2) 5 μl of the unlabeled antibody DSV36S or DSV38S or SC56536 or AM05302PU-N or SC13533 was added to each well, • 3) The plates were incubated for 30 minutes at room temperature, • 4) 5 μl of the anti Twin-Strep-tag-Lumi4 Tb antibody and of the antibody SC13533-d2 were added to each well.
# (§6) The plates were incubated for 1 h at room temperature before reading the HTRF signal.
# Gαi1 [3] = target: T2, Gαi1; experiment: HTRF competition: unlabeled antibodies versus binding of DSV36S-d2 on G-protein αi1; details: unlabeled antibody 0.001-1 μM; DSV36S-d2 10 nM; GTPgS 100 μM
# Method: as §4, with “DSV38S, DSV26S, DSV3S,” for “DSV38S”, “DSV39S” for “SC13533”, “0.001” for “0.01”, “1 μM.” for “100 nM.”, “DSV36S-d2” for “SC 13533-d2”
# as §5, with “antibodies DSV36S, DSV38S, DSV26S, DSV3S, and DSV39S” for “antibody DSV36S or DSV38S or SC56536 or AM05302PU-N or SC13533”, “DSV36S-d2” for “SC13533-d2”
# as §6
# Gα12 = target: T3, Gα12 (Homo sapiens, UniProt Q03113); experiment: HTRF selectivity assay, G-protein α overexpressed in HEK293 cells; assay type: binding; details: antibody-d2 10 nM, 20 h
# T3 construct: host or cells: HEK293
# T3 sequence (Q03113 1-381): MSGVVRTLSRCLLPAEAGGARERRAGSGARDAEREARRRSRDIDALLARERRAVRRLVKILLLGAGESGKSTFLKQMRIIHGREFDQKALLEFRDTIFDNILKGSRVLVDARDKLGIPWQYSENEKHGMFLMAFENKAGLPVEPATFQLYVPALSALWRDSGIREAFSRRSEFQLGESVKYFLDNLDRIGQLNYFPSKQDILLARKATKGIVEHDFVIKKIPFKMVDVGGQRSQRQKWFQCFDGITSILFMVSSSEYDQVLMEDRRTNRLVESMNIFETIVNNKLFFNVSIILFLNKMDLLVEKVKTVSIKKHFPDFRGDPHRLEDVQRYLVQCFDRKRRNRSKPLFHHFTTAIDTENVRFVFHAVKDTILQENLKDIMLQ
# Method: (§7) A solution containing 1 million HEK cells/ml was prepared in OptiMEM medium. Mixtures of plasmids/Lipofectamine containing 150 ng/well of plasmids and 0.375 μl of lipofectamine were prepared in OptiMEM medium 30 minutes before adding them to the 96-well plate with black-bottomed wells.
# (§8) Distribution of the reagents in each well of the black microplate suitable for cell culture: • 1) 50 μl per well of polyornithine was incubated for 30 minutes at room temperature and then the solution was withdrawn from each well by aspiration. • 2) 50 μl of the preparation of HEK293 (cell density of 50000 cells per well) was added to each well • 3) 50 μl of the mixture of plasmids coding for a G-protein+lipofectamine was added to each well.
# (§9) The microplates were incubated for 24 h at 37° C. and 5% CO2 (regulated stove).
# (§10) The antibodies DSV36S-d2, DSV38S-d2 and SC13533-d2 were prepared 4× for a final concentration in the wells of 10 nM.
# (§11) The reagents were distributed on the 384-well plates as follows: • 1) The OptiMEM culture medium was aspirated, • 2) 25 μl of buffer or GDP or GTP was added to each well, • 3) 25 μl of buffer was added to each well, • 4) 25 μl of antibody DSV36S-d2 or DSV38S-d2 or SC13533-d2 or anti-FLAG-d2 was added to each well, • 5) 25 μl of anti Twin-Strep-tag-Lumi4 Tb antibody was added to each well.
# (§12) The microplates were incubated for 20 h at room temperature before reading the HTRF signal.
# Gα13 = target: T4, Gα13 (Homo sapiens, UniProt Q14344); experiment: as above; assay type: binding; details: antibody-d2 10 nM, 20 h
# T4 sequence (Q14344 1-377): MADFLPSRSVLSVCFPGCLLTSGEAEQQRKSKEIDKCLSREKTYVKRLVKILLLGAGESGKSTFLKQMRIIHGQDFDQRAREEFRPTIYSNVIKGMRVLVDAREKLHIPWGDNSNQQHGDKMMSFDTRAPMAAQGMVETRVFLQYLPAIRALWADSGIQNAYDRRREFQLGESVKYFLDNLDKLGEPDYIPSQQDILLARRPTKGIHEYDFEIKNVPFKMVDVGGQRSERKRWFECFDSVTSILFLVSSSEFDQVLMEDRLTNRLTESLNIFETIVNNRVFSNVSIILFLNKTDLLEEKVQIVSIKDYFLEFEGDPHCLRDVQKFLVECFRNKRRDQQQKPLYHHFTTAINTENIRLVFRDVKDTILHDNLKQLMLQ
# Method: as §7, §8, §9, §10, §11, §12
# Gαi1 [4] = target: T2, Gαi1; experiment: as above; assay type: binding; details: antibody-d2 10 nM, 20 h
# Method: as §7, §8, §9, §10, §11, §12
# Gαi2 = Gαi2 (Homo sapiens, UniProt P04899); experiment: as above; assay type: binding; details: antibody-d2 10 nM, 20 h
# Chain of Gαi2 (P04899 whole entry): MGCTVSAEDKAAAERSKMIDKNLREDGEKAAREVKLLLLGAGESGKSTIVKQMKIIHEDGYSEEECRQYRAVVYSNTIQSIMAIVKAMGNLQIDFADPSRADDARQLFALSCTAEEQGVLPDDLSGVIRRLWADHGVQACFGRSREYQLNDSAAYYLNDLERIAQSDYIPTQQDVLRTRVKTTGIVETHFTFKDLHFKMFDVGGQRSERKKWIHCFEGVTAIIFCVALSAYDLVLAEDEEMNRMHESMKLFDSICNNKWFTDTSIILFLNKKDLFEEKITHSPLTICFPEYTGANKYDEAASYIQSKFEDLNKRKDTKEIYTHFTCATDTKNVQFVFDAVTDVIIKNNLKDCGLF
# Method: as §7, §8, §9, §10, §11, §12
# Gαi3 = target: T5, Gαi3 (Homo sapiens, UniProt P08754); experiment: as above; assay type: binding; details: antibody-d2 10 nM, 20 h
# T5 construct: host or cells: HEK293
# T5 sequence (P08754 whole entry): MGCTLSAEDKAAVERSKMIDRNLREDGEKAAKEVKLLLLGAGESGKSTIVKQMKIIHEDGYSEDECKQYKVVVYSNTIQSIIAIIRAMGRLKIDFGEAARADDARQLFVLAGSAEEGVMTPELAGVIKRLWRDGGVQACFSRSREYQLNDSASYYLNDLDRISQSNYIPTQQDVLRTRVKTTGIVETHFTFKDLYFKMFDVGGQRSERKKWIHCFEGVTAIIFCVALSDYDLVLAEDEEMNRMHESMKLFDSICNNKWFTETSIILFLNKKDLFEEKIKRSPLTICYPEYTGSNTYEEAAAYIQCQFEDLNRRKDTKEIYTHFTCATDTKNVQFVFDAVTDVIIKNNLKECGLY
# Method: as §7, §8, §9, §10, §11, §12
# Gαo = Gαo (Homo sapiens, UniProt P09471); experiment: as above; assay type: binding; details: antibody-d2 10 nM, 20 h
# Chain of Gαo (P09471 whole entry): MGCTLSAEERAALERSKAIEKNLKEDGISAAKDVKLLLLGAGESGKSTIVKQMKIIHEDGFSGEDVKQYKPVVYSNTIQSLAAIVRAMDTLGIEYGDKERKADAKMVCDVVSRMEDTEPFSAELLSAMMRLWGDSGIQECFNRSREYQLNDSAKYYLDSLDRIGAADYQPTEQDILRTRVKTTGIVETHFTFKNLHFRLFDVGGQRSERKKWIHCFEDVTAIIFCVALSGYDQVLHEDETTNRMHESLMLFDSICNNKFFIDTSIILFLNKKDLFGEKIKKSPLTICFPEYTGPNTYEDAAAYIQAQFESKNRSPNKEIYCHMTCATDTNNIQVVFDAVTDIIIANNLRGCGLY
# Method: as §7, §8, §9, §10, §11, §12
# Gαq = target: T6, Gαq (Homo sapiens, UniProt P50148); experiment: as above; assay type: binding; details: antibody-d2 10 nM, 20 h
# T6 sequence (P50148 1-359): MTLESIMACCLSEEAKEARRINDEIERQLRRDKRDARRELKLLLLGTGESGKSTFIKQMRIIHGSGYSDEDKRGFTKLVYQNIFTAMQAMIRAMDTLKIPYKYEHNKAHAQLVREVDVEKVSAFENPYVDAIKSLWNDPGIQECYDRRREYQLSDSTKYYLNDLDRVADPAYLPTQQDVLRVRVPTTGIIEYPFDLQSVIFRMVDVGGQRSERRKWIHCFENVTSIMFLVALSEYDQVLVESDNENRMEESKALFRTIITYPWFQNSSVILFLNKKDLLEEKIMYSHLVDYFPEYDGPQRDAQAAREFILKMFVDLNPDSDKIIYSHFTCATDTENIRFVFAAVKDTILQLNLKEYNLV
# Method: as §7, §8, §9, §10, §11, §12
# Gαs = Gαs (Homo sapiens, UniProt P63092); experiment: as above; assay type: binding; details: antibody-d2 10 nM, 20 h
# Chain of Gαs (P63092 whole entry): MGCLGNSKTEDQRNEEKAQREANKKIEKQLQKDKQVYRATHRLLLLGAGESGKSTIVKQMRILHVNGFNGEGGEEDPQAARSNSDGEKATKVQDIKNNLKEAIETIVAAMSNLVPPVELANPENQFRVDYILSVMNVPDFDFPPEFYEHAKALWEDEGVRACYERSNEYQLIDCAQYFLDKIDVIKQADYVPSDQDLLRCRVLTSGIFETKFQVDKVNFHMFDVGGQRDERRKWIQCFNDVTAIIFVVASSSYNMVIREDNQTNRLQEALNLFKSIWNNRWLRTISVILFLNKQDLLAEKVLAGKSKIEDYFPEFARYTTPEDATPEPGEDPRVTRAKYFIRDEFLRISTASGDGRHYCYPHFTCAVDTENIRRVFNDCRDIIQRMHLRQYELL
# Method: as §7, §8, §9, §10, §11, §12
# Gαz = target: T7, Gαz (Homo sapiens, UniProt P19086); experiment: as above; assay type: binding; details: antibody-d2 10 nM, 20 h
# T7 construct: host or cells: HEK293
# T7 sequence (P19086 whole entry): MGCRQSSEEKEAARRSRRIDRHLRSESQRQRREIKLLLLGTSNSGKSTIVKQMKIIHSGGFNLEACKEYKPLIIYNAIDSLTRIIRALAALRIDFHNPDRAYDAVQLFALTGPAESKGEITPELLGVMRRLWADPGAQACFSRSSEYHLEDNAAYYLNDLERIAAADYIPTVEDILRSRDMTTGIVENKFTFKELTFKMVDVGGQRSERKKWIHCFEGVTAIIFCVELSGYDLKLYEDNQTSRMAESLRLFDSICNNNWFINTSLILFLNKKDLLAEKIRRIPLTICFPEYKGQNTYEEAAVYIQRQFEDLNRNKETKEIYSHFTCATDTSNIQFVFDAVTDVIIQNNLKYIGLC
# Method: as §7, §8, §9, §10, §11, §12
# G-proteins α = experiment: TR-FRET signal of labeled antibody combined with fluorescent GTP analog on HEK293 membranes expressing the DOR receptor; assay type: binding; details: for FRET signal with GTPgN-octyl-C2-Europium cryptate: antibody labeled with d2 10 nM, GTP analog 6 nM, FIG. 11
# Method: as §1, §2, §3
molecule,measurement,setting,value
C=CCN1C[C@H](C)N([C@@H](c2ccccc2)c2ccc(C(=O)N(CC)CC)cc2)C[C@H]1C [SNC162],activation of the DOR receptors overexpressed in the membranes,DOR receptors,caused activation of the DOR receptors
Oc1ccc2c3c1O[C@H]1c4[nH]c5ccccc5c4C[C@@]4(O)[C@@H](C2)N(CC2CC2)CC[C@]314 [Naltrindole],"effect on activation by SNC162 (TR-FRET signal, HTRF ratio)",Delta Opioid GPCR,inhibited
B1,signal and affinity depending on the state of G-protein αi1,Gαi1 [1]; G-protein αi1 bound to a nucleotide (in particular GTPgS) versus empty,higher signal and higher affinity
same,capacity for binding the G-protein αi1 (HTRF signal),"Gαi1 [1]; antibodies labeled with d2, in the presence and in the absence of nucleotide (GTPgS or GDP)",capable of binding the G-protein αi1
same,inhibition of the HTRF signal obtained with antibody SC13533-d2,Gαi1 [2],not capable of inhibiting
same,inhibition of the HTRF signal obtained with antibody DSV36S-d2,Gαi1 [3],completely inhibited
same,HTRF signal with anti-Twin-Strep-tag-Lumi4 Tb,Gα12,did not give an HTRF signal
same,HTRF signal with anti-Twin-Strep-tag-Lumi4 Tb,Gα13,did not give an HTRF signal
same,HTRF signal with anti-Twin-Strep-tag-Lumi4 Tb,Gαi1 [4],positive HTRF signal
same,HTRF signal with anti-Twin-Strep-tag-Lumi4 Tb,Gαi2,positive HTRF signal
same,HTRF signal with anti-Twin-Strep-tag-Lumi4 Tb,Gαi3,positive HTRF signal
same,HTRF signal with anti-Twin-Strep-tag-Lumi4 Tb,Gαo,positive HTRF signal
same,HTRF signal with anti-Twin-Strep-tag-Lumi4 Tb,Gαq,did not give an HTRF signal
same,HTRF signal with anti-Twin-Strep-tag-Lumi4 Tb,Gαs,did not give an HTRF signal
same,HTRF signal with anti-Twin-Strep-tag-Lumi4 Tb,Gαz,positive HTRF signal
same,FRET signal with GTPgN-octyl-C2-Europium cryptate,G-proteins α; condition buffer (absence of SNC162),moderate but significant FRET signal
same,FRET signal with GTPgN-octyl-C2-Europium cryptate,G-proteins α; on adding SNC162 10 μM,increase of this FRET signal
same,FRET signal with Europium GTPgN-octyl-C2-cryptate,"G-proteins α; unactivated membrane preparations, antibodies labeled with d2, FIG. 12",increase of the FRET signal
